Data: PMC5187519

Columns and labels:
30S–IF3DL complex [1] = target: 30S–IF3DL complex (UniProt P0A707); experiment: stopped-flow fluorescence; pre-steady state; preformed 30S–IF3DL (0.1 µM) mixed with a 10-fold molar excess of IF1 (1 µM); intramolecular FRET of IF3DL; TAKM10 buffer, 25 °C; single exponential fit; apparent rate constant
30S–IF3DL complex [2] = target: 30S–IF3DL complex (UniProt P0A707); experiment: other fluorescence titration; equilibrium; preformed 30S–IF3DL (0.5 µM) titrated with IF1 (0.1-2 µM); intramolecular FRET of IF3DL; HAKM10 buffer; one-site binding fit
[3] = target: 30S subunit (minor ribosomal subunit); experiment: stopped-flow fluorescence; pre-steady state; 30S subunits (0.1 µM) mixed with equimolar IF3DL; intramolecular FRET of IF3DL; TAKM10 buffer, 25 °C; fit with two exponential terms; apparent rate constants

B1: Initiation factor IF1 (natural protein)
chain: MAKEDNIEMQGTVLETLPNTMFRVELENGHVVTAHISGKMRKNYIRILTGDKVTVELTPYDLSKGRIVFRSR
kapp (IF1-dependent FRET change at 1 µM IF1; a step after the initial binding) (30S–IF3DL complex [1]): 0.26 s⁻¹ | Kd (30S–IF3DL complex [2]): 100 nM

B2: IF3DL (double-labeled IF3; IF3 E166C with Atto-540Q at the CTD and Atto-488 at the NTD) (natural protein)
chain: MKGGKRVQTARPNRINGEIRAQEVRLTGLEGEQLGIVSLREALEKAEEAGVDLVEISPNAEPPVCRIMDYGKFLYEKSKSSKEQKKKQKVIQVKEIKFRPGTDEGDYQVKLRSLIRFLEEGDKAKITLRFRGREMAHQQIGMEVLNRVKDDLQELAVVESFPTKICGRQMIMVLAPKKKQ
modifications: Atto-540Q maleimide on the recombinant cysteine 166 (E166C, CTD); Atto-488 maleimide on the natural cysteine 65 (NTD)
kapp1 (initial bimolecular encounter, 0.1 µM each) [3]: 16 s⁻¹
